IntAct's records for PubMed 19497856

B1: Homeobox protein SIX1 (Homo sapiens), Q15475 (parent)
chain: MSMLPSFGFTQEQVACVCEVLQQGGNLERLGRFLWSLPACDHLHKNESVLKAKAVVAFHRGNFRELYKILESHQFSPHNHPKLQQLWLKAHYVEAEKLRGRPLGAVGKYRVRRKFPLPRTIWDGEETSYCFKEKSRGVLREWYAHNPYPSPREKRELAEATGLTTTQVSNWFKNRRQRDRAAEAKERENTENNNSSSNKQNQLSPLEGGKPLMSSSEEEFSPPQSPDQNSVLLLQGNMGHARSSNYSLPGLTASQPSHGLQTHQHQLQDSLLGPLTSSLVDLGS
partner: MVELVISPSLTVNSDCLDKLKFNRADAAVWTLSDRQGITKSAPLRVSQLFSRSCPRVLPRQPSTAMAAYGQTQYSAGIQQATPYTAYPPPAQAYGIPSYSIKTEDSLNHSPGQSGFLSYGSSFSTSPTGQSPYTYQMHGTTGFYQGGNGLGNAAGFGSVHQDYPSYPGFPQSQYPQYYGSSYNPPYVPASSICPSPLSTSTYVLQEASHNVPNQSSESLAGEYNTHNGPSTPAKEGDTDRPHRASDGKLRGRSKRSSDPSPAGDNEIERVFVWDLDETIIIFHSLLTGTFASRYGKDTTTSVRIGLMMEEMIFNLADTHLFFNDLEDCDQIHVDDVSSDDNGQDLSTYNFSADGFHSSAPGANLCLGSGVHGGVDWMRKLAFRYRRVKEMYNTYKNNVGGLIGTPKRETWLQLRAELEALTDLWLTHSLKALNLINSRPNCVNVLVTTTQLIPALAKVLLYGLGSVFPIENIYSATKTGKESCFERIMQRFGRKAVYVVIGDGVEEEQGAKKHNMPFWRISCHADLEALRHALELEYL

Variants of: B1
Conditions: with eya2_human EYA2, O00167

Variant	effect of a mutation on the interaction
V17E	decreasing interaction strength
